Results reported in patent US20250215101A1, “DR5 Agonist and PLK1 Inhibitor or CDK Inhibitor Combination Therapy” (Inhibrx Biosciences, Inc., priority 2022, published 2025).

How the values were obtained:
[1] = test system: panel of colorectal cancer cell lines and panel of pancreatic cell lines; assay: Cytotoxicity screen onvansertib +/- 1 nM INBRX-109, summary over the additional panels; type: cell-based; conditions: combination of INBRX-109 and onvansertib
Description: The results for a panel of colorectal cancer cell lines are shown in Table 3 and FIGS. 4-6, and the results for a panel of pancreatic cell lines are shown in Table 4 and FIGS. 7 and 8.

[2] = test system: cancer cell lines HT-29, LS174T, SW620, SW837, SW1463, and LS411N; assay: Cytotoxicity screen INBRX-109 + onvansertib, summary over the cell lines; type: cell-based; conditions: combination of INBRX-109 and onvansertib
Experimental: Monolayer cultures of each cell line were harvested for compound screening as detailed below.
Onvansertib: A 10 mg stock of onvansertib was purchased from Selleck Chemicals and was resuspended to 10 mM in DMSO. This was then aliquoted and stored at −80° C. Aliquots were thawed immediately prior to dilution and use in the assay. A 500× master plate of serial dilutions (6-point 5-fold dilutions in 100% DMSO starting at 500 μM, plus a DMSO only control) was prepared and mixed gently with a pipette. To generate a 5× working dilution plate of onvansertib, a 1:100 dilution was performed from the 500× plate into complete media (EMEM).
Also on day 2, test and control articles were added.
On day 4, viability measurements were taken. […] Data was graphed in GraphPad Prism 9.

OUMS-27 = assay: Cell viability (CellTiter-Glo) cytotoxicity assay, INBRX-109 x CDK9 or MCL-1 inhibitor matrix, 48 h, chondrosarcoma line
Experimental: (§1) On day 1, cells were seeded as follows. Monolayer cultures of each cell line (chondrosarcoma: CAL-78, OUMS-27, SW1353, and H-EMC-SS; colorectal cancer: SW620; and synovial sarcoma: HS-SY-II) were harvested for compound screening. Culture medium was aspirated, and the cells were washed once with PBS. Accutase was added and flasks were incubated at 37° C. until cells became detached. An equal volume of complete medium was added to quench the Accutase, and the cells were then pipetted up and down several times to generate a homogenous single cell suspension. The density and viability of cells was determined by Trypan Blue using a TC20 Automated Cell Counter. Experimental cells were resuspended to a concentration of 0.17×10^6/mL in Eagle's Minimum Essential Medium (EMEM)/10% FBS/Anti-Anti media (complete EMEM) and seeded in the inner wells of 384-well luminescence plates at 15 mL/well (2,500/well final). Each cell line was plated in duplicate on separate plates. Outer wells were filled with 50 mL PBS, then plates were incubated in a humidified temperature-controlled 37° C. tissue culture incubator at 5% CO2 overnight for 16 hours.
(§2) These test articles were added, in duplicate, to each cell line. The plates were then centrifuged at 400×g for 1 minute, then incubated in a 37° C. humidity-controlled tissue culture incubator (5% CO2) for 48 hours.
(§3) After incubation with the test articles, viability measurements were taken, briefly. Plates were equilibrated to room temperature for 10 minutes, then 25 μL of CellTiter-Glo 2.0® was added to each well. Plates were spun for 1 minute at 400×g, then covered and incubated in the dark for 10 minutes at room temperature. Any visible bubbles were removed with 100% ethanol vapor, then luminescence (RLU) was read on the Spectra Max M5e plate reader, using the 384-well opaque plate setting and SoftMax® Pro v5.4 software with an integration time of 50 milliseconds. To determine the effect of test articles on cell viability, raw RLU values were exported to Excel and percent survival was calculated as a percentage of vehicle control (0.5% DMSO in EMEM), where the vehicle control is set at 100%. Data was graphed in GraphPad Prism 9.

CAL-78 = assay: as above
Experimental: as §1, §2, §3

SW620 = assay: Cell viability (CellTiter-Glo) cytotoxicity assay, INBRX-109 x CDK9 or MCL-1 inhibitor matrix, 48 h, colorectal cancer line
Experimental: as §1, §2, §3

HS-SY-II = assay: Cell viability (CellTiter-Glo) cytotoxicity assay, INBRX-109 x CDK9 or MCL-1 inhibitor matrix, 48 h, synovial sarcoma line
Experimental: as §1, §2, §3

SW1353 = assay: Cell viability (CellTiter-Glo) cytotoxicity assay, INBRX-109 x CDK9 or MCL-1 inhibitor matrix, 48 h, chondrosarcoma line
Experimental: as §1, §2, §3

[3] = test system: several cancerous cell lines; assay: Previous cytotoxicity assays with several cancerous cell lines; type: cell-based
[4] = INBRX-109 + 125 nM flavopiridol

Molecule: CN1CCN(c2ccc(OC(F)(F)F)c(Nc3ncc4c(n3)-c3c(c(C(N)=O)nn3CCO)CC4)c2)CC1 [Onvansertib]
- cell killing by the combination compared to either agent alone [1]: increased cell killing
- cell killing by the combination [2]: increased cell killing on every cancer cell line tested

B1: INBRX-109: DR5-binding polypeptide consisting of SEQ ID NO: 7 (two VHH domains and an Fc region); DR5 agonist (protein)
chain: EVQLLESGGGEVQPGGSLRLSCAASGLTFPNYGMGWFRQAPGKEREFVSAIYWSGGTVYYAESVKGRFTISRDNAKNTLYLQMSSLRAEDTAVYYCAVTIRGAATQTWKYDYWGQGTLVTVKPGGSGGSEVQLLESGGGEVQPGGSLRLSCAASGLTFPNYGMGWFRQAPGKEREFVSAIYWSGGTVYYAESVKGRFTISRDNAKNTLYLQMSSLRAEDTAVYYCAVTIRGAATQTWKYDYWGQGTLVTVKPGGGGDKTHTCPPCPAPGGPSVFLFPPKPKDTLMISRTPEVTCVVVDVSHEDPEVKFNWYVDGVEVHNAKTKPREEQYNSTYRVVSVLTVLHQDWLNGKEYKCKVSNKALPAPIEKTISKAKGQPREPQVYTLPPSRDELTKNQVSLTCLVKGFYPSDIAVEWESNGQPENNYKTTPPVLDSDGSFFLYSKLTVDKSRWQQGNVFSCSVMHEALHNHYTQKSLSLSPGK
modifications: INBRX-109
notes: DR5 agonist
- EC50 (OUMS-27; INBRX-109 + 2 μM AZD-5991): 8.71 pM
- EC50 (OUMS-27; INBRX-109 only (Table 5)): 982 pM
- EC50 (OUMS-27; INBRX-109 only (Table 7)): > 4090 pM
- EC50 (OUMS-27; INBRX-109 only (Table 11)): Unstable
- EC50 (OUMS-27; INBRX-109 only (Table 13)): 8870 pM
- EC50 (CAL-78; INBRX-109 + 2 μM AZD-5991): 3.93 pM
- EC50 (CAL-78; INBRX-109 only (Table 5)): > 3600 pM
- EC50 (CAL-78; INBRX-109 only (Table 7)): unstable
- EC50 (CAL-78; INBRX-109 only (Table 9)): 17.2 pM
- EC50 (CAL-78; INBRX-109 only (Table 11)): 28.9 pM
- EC50 (SW620; INBRX-109 + 2 μM AZD-5991): 5.78 pM
- EC50 (SW620; INBRX-109 only (Table 5)): 7.8 pM
- EC50 (SW620; INBRX-109 only (Table 7)): 98.1 pM
- EC50 (SW620; INBRX-109 only (Table 9)): 1.37 pM
- EC50 (SW620; INBRX-109 only (Table 11)): 1.98 pM
- EC50 (SW620; INBRX-109 only (Table 13)): 9.84 pM
- EC50 (HS-SY-II; INBRX-109 + 125 nM enitociclib): 646 pM
- EC50 (HS-SY-II; [4]): 1.93 pM
- EC50 (HS-SY-II; INBRX-109 + 2 μM AZD-5991): Unstable
- EC50 (HS-SY-II; INBRX-109 only (Table 9)): Unstable
- EC50 (HS-SY-II; INBRX-109 only (Table 11)): 11 pM
- EC50 (SW1353; INBRX-109 + 125 nM enitociclib): 1.05 pM
- EC50 (SW1353; [4]): 2.81 pM
- EC50 (SW1353; INBRX-109 + 2 μM AZD-5991): 5.33 pM
- EC50 (SW1353; INBRX-109 only (Table 5)): unstable
- EC50 (SW1353; INBRX-109 only (Table 7)): unstable
- EC50 (SW1353; INBRX-109 only (Table 9)): Unstable
- EC50 (SW1353; INBRX-109 only (Table 11)): 9.1 pM
- EC50 (SW1353; INBRX-109 only (Table 13)): Unstable
- maximally efficacious concentration [3]: 1 nM
